Measurements as given in publication PMC10107573 (Nature Communications, 2023).

Target: T1, SARS-CoV-2 Omicron BA.1 spike ectodomain (S trimer) (SARS-CoV-2 Omicron BA.1, S371L | S373P | S375F | S477N | E484A)
T1 construct: also called BA.1 S trimer
Test: cryo-EM structure
Conditions: both partners purified

B1: 10-5B Fab (Fab, V domains shown)
VH: EVQLVESGGGLIQPGGSLRLSCAVSGFTVSRMSWVRQAPGKGLECVSVIYTGGNTDYADSVKGRFTISRDNSKNTLYLQMNSLRAEDTALYYCVRGSGGIHDAFDIWGQGTMVTVSS
VL: DIQMTQSPSSVSASVGDRVTITCRASQGISTWLAWYQQKPGKAPKVLINAASGLQSGVPSRFSGSGSGTDFTLTISSLQPEDFATYYCQQAHSFPPTFGPGTKLEIK
notes: also called 10-5B Fab fragments
For B1, the “stoichiometry N” value was 3 Fabs per S trimer.
